Data from patent US12678457B2, “Blood-brain barrier-penetrating nanotheranostics for acute and chronic neurodegenerative diseases and the like” (THE GOVERNING COUNCIL OF THE UNIVERSITY OF TORONTO, priority 2020, dated 2026).

Assay: Pharmacokinetic study of GDNF-TPN (human GDNF ELISA)
Type: in vivo, healthy CD-1 mice
Conditions: after i.v. injection
Experimental: Healthy CD-1 mice were randomly allocated into three treatment groups and received a single i. v. injection of GDNF-TPN, Free GDNF or saline at a matched dose of 15 mg GDNF/kg. At 0.5, 1, 2, 4, 6 and 24 hours after injection, whole blood was collected in heparinized tubes from ketamine anesthetized mice by cardiac puncture. Following perfusion with ice-cold saline via the left ventricle, the brains and organs were harvested, rinsed in PBS, weighted, snap-frozen and stored at −80° C. for further analysis. The mouse tissues were homogenized with RIPA buffer containing protease inhibitors and the GDNF was assayed using Human GDNF Elisa kit (Abcam, CA) under manufacture's protocol. […] Free GDNF was quickly eliminated from the blood within 2 hours after injection.

B1: glial cell line-derived neurotrophic factor (protein, UniProt P39905 78-211, looked up)
Glial cell line-derived …: SPDKQMAVLPRRERNRQAAAANPENSRGKGRRGQRGKNRGCVLTAIHLNVTDLGLGYETKEELIFRYCSGSCDAAETTYDKILKNLSRNRRLVSDKVGQACCRPIAFDDDLSFLDDNLVYHILRKHSAKRCGCI
notes: Human GDNF, free protein solution used as comparator
Time to elimination from the blood: ≤ 2 h
